# Assay results reported in patent publication US20140087995A1 (published 2014).
# Numbered stars: 1 amine (or outer) side, 2 acyl side, 3 side chain; on linkers, the order of the positions; unused ones are H or OH. Bridge positions count the residues as written; N and C are the ends. Side chains are listed from the residue outwards. Ends that are not written are not given here. * marks the point of attachment. C20 diacid = O=C(O)CCCCCCCCCCCCCCCCCCC(=O)*; γGlu = O=C(O)[C@H](CCC(=O)[*:2])N[*:1]
# T1: human calcitonin receptor (human, UniProt P30988 25-474)
# T1 sequence (looked up): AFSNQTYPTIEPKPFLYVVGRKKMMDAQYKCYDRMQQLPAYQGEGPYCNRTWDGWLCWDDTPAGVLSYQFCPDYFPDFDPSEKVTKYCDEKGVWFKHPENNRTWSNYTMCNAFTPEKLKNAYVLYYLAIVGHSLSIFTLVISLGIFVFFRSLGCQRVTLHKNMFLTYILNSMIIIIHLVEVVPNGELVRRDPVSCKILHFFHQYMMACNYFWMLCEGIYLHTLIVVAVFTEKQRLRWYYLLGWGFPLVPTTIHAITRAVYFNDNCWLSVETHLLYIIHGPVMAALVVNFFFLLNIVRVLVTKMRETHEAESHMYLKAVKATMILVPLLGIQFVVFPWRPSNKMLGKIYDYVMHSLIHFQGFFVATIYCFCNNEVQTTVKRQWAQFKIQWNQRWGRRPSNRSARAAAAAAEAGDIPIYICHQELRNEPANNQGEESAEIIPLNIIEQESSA
# T2: human calcitonin receptor (human, UniProt P30988 25-474)
# T2 construct: whole, on cells; also called hCTR; hCT
# T2 sequence (looked up): T1 sequence (looked up)
# B1: N^α1-[(4S)-4-carboxy-4-(19-carboxynonadecanoylamino)butanoyl]-[Glu14,Arg17,Pro21,Pro25,Pro28,Pro29,Pro37]-h-amylin (peptide)
# peptide: {C20 diacid-γGlu}-KCNTATCATQRLAEFLRHSSPNFGPILPPTNVGSNTP-NH2
# modifications: disulfide 2-7
# SMILES: CC[C@H](C)[C@H](NC(=O)[C@@H]1CCCN1C(=O)CNC(=O)[C@H](Cc1ccccc1)NC(=O)[C@H](CC(N)=O)NC(=O)[C@@H]1CCCN1C(=O)[C@H](CO)NC(=O)[C@H](CO)NC(=O)[C@H](Cc1c[nH]cn1)NC(=O)[C@H](CCCNC(=N)N)NC(=O)[C@H](CC(C)C)NC(=O)[C@H](Cc1ccccc1)NC(=O)[C@H](CCC(=O)O)NC(=O)[C@H](C)NC(=O)[C@H](CC(C)C)NC(=O)[C@H](CCCNC(=N)N)NC(=O)[C@H](CCC(N)=O)NC(=O)[C@@H](NC(=O)[C@H](C)NC(=O)[C@@H]1CSSC[C@H](NC(=O)[C@H](CCCCN)NC(=O)CC[C@H](NC(=O)CCCCCCCCCCCCCCCCCCC(=O)O)C(=O)O)C(=O)N[C@@H](CC(N)=O)C(=O)N[C@@H]([C@@H](C)O)C(=O)N[C@@H](C)C(=O)N[C@@H]([C@@H](C)O)C(=O)N1)[C@@H](C)O)C(=O)N[C@@H](CC(C)C)C(=O)N1CCC[C@H]1C(=O)N1CCC[C@H]1C(=O)N[C@H](C(=O)N[C@@H](CC(N)=O)C(=O)N[C@H](C(=O)NCC(=O)N[C@@H](CO)C(=O)N[C@@H](CC(N)=O)C(=O)N[C@H](C(=O)N1CCC[C@H]1C(N)=O)[C@@H](C)O)C(C)C)[C@@H](C)O
# notes: Synthetic acylated analogue of human amylin; also called compound 4
# B2: N^ε1-[(4S)-4-carboxy-4-[[(4S)-4-carboxy-4-(19-carboxynonadecanoylamino)butanoyl]amino]butanoyl]-[Asp14,Arg17,Pro21,Pro27,Pro34,Arg35]-h-amylin (peptide)
# peptide: K([γGlu-γGlu-C20 diacid])CNTATCATQRLADFLRHSSPNFGAIPSSTNVGPRTY-NH2
# modifications: disulfide 2-7; N-terminus assumed
# SMILES: CC[C@H](C)[C@H](NC(=O)[C@H](C)NC(=O)CNC(=O)[C@H](Cc1ccccc1)NC(=O)[C@H](CC(N)=O)NC(=O)[C@@H]1CCCN1C(=O)[C@H](CO)NC(=O)[C@H](CO)NC(=O)[C@H](Cc1c[nH]cn1)NC(=O)[C@H](CCCNC(=N)N)NC(=O)[C@H](CC(C)C)NC(=O)[C@H](Cc1ccccc1)NC(=O)[C@H](CC(=O)O)NC(=O)[C@H](C)NC(=O)[C@H](CC(C)C)NC(=O)[C@H](CCCNC(=N)N)NC(=O)[C@H](CCC(N)=O)NC(=O)[C@@H](NC(=O)[C@H](C)NC(=O)[C@@H]1CSSC[C@H](NC(=O)[C@@H](N)CCCCNC(=O)CC[C@H](NC(=O)CC[C@H](NC(=O)CCCCCCCCCCCCCCCCCCC(=O)O)C(=O)O)C(=O)O)C(=O)N[C@@H](CC(N)=O)C(=O)N[C@@H]([C@@H](C)O)C(=O)N[C@@H](C)C(=O)N[C@@H]([C@@H](C)O)C(=O)N1)[C@@H](C)O)C(=O)N1CCC[C@H]1C(=O)N[C@@H](CO)C(=O)N[C@@H](CO)C(=O)N[C@H](C(=O)N[C@@H](CC(N)=O)C(=O)N[C@H](C(=O)NCC(=O)N1CCC[C@H]1C(=O)N[C@@H](CCCNC(=N)N)C(=O)N[C@H](C(=O)N[C@@H](Cc1ccc(O)cc1)C(N)=O)[C@@H](C)O)C(C)C)[C@@H](C)O
# notes: also called compound 130
# B3: N^ε1-[(4S)-4-carboxy-4-[[(4S)-4-carboxy-4-(19-carboxynonadecanoylamino)butanoyl]amino]butanoyl]-[Glu14,Arg17,Pro21,Pro27,Pro34,Phe37]-h-amylin (peptide)
# peptide: K([γGlu-γGlu-C20 diacid])CNTATCATQRLAEFLRHSSPNFGAIPSSTNVGPNTF-NH2
# modifications: disulfide 2-7; N-terminus assumed
# SMILES: CC[C@H](C)[C@H](NC(=O)[C@H](C)NC(=O)CNC(=O)[C@H](Cc1ccccc1)NC(=O)[C@H](CC(N)=O)NC(=O)[C@@H]1CCCN1C(=O)[C@H](CO)NC(=O)[C@H](CO)NC(=O)[C@H](Cc1c[nH]cn1)NC(=O)[C@H](CCCNC(=N)N)NC(=O)[C@H](CC(C)C)NC(=O)[C@H](Cc1ccccc1)NC(=O)[C@H](CCC(=O)O)NC(=O)[C@H](C)NC(=O)[C@H](CC(C)C)NC(=O)[C@H](CCCNC(=N)N)NC(=O)[C@H](CCC(N)=O)NC(=O)[C@@H](NC(=O)[C@H](C)NC(=O)[C@@H]1CSSC[C@H](NC(=O)[C@@H](N)CCCCNC(=O)CC[C@H](NC(=O)CC[C@H](NC(=O)CCCCCCCCCCCCCCCCCCC(=O)O)C(=O)O)C(=O)O)C(=O)N[C@@H](CC(N)=O)C(=O)N[C@@H]([C@@H](C)O)C(=O)N[C@@H](C)C(=O)N[C@@H]([C@@H](C)O)C(=O)N1)[C@@H](C)O)C(=O)N1CCC[C@H]1C(=O)N[C@@H](CO)C(=O)N[C@@H](CO)C(=O)N[C@H](C(=O)N[C@@H](CC(N)=O)C(=O)N[C@H](C(=O)NCC(=O)N1CCC[C@H]1C(=O)N[C@@H](CC(N)=O)C(=O)N[C@H](C(=O)N[C@@H](Cc1ccccc1)C(N)=O)[C@@H](C)O)C(C)C)[C@@H](C)O
# B4: N^ε1-[(4S)-4-carboxy-4-[[(4S)-4-carboxy-4-(19-carboxynonadecanoylamino)butanoyl]amino]butanoyl]-[Ser14,Arg17,Pro21,Pro27,Pro34,Glu35]-h-amylin (peptide)
# peptide: K([γGlu-γGlu-C20 diacid])CNTATCATQRLASFLRHSSPNFGAIPSSTNVGPETY-NH2
# modifications: disulfide 2-7; N-terminus assumed
# SMILES: CC[C@H](C)[C@H](NC(=O)[C@H](C)NC(=O)CNC(=O)[C@H](Cc1ccccc1)NC(=O)[C@H](CC(N)=O)NC(=O)[C@@H]1CCCN1C(=O)[C@H](CO)NC(=O)[C@H](CO)NC(=O)[C@H](Cc1c[nH]cn1)NC(=O)[C@H](CCCNC(=N)N)NC(=O)[C@H](CC(C)C)NC(=O)[C@H](Cc1ccccc1)NC(=O)[C@H](CO)NC(=O)[C@H](C)NC(=O)[C@H](CC(C)C)NC(=O)[C@H](CCCNC(=N)N)NC(=O)[C@H](CCC(N)=O)NC(=O)[C@@H](NC(=O)[C@H](C)NC(=O)[C@@H]1CSSC[C@H](NC(=O)[C@@H](N)CCCCNC(=O)CC[C@H](NC(=O)CC[C@H](NC(=O)CCCCCCCCCCCCCCCCCCC(=O)O)C(=O)O)C(=O)O)C(=O)N[C@@H](CC(N)=O)C(=O)N[C@@H]([C@@H](C)O)C(=O)N[C@@H](C)C(=O)N[C@@H]([C@@H](C)O)C(=O)N1)[C@@H](C)O)C(=O)N1CCC[C@H]1C(=O)N[C@@H](CO)C(=O)N[C@@H](CO)C(=O)N[C@H](C(=O)N[C@@H](CC(N)=O)C(=O)N[C@H](C(=O)NCC(=O)N1CCC[C@H]1C(=O)N[C@@H](CCC(=O)O)C(=O)N[C@H](C(=O)N[C@@H](Cc1ccc(O)cc1)C(N)=O)[C@@H](C)O)C(C)C)[C@@H](C)O
# notes: also called compound 120
# Biological target: T1, human calcitonin receptor
# Assay: cell-based or functional assay
row,Binder,"hCTR funct. EC50 (CRE luciferase reporter, BHK cells) [nM]"
1,B1,0.07

# Biological target: T2, human calcitonin receptor
# Assay: SPA competition against 125I-calcitonin, membranes of BHK cells with human calcitonin receptor (Assay VII)
# Outline: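 BHK hCTR membranes 35 ng/μL + SPA beads 0.05 mg/well; buffer 50 mM Hepes pH 7.4, 1 mM CaCl2, 5 mM MgCl₂, 0.1% OA, 0.02% Tween20. 120 min, 25° C., shaking. Scintillation count; IC50 by one-site binding competition.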
row,Binder,IC50 [nM]
1,B2,127
2,K([γGlu-γGlu-C20 diacid])CNTATCATQRLADFLRHSSPNFGAIPSSTNVGPETY-NH2 (disulfide 2-7),8.56
3,B3,2.73
4,K([γGlu-γGlu-C20 diacid])CNTATCATQRLAEFLRHSSPNFGAIPSSTNVGPHTY-NH2 (disulfide 2-7 (inferred)),10.3
5,K([γGlu-γGlu-C20 diacid])CNTATCATQRLAEFLRHSSPNFGAILSSTPVGPETY-NH2 (disulfide 2-7 (inferred)),1.56
6,B4,3.44

# Biological target: T2, human calcitonin receptor
# Assay: ratio of IC50 at human calcitonin receptor to IC50 at human amylin receptor (SPA competition assays)
# Outline: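 IC₅₀ values were derived by one-site competition analysis of SPA counts. Cell membranes (35 ng/μL) with SPA beads were incubated with test compounds for 120 min at 25° C in Hepes buffer, pH 7.4, containing CaCl2, MgCl₂, OA and Tween20.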
row,Binder,Ratio hCT/hAmylin binding
1,B2,280
2,K([γGlu-γGlu-C20 diacid])CNTATCATQRLADFLRHSSPNFGAIPSSTNVGPETY-NH2 (disulfide 2-7),49.8
3,B3,18
4,K([γGlu-γGlu-C20 diacid])CNTATCATQRLAEFLRHSSPNFGAIPSSTNVGPHTY-NH2 (disulfide 2-7 (inferred)),27.3
5,K([γGlu-γGlu-C20 diacid])CNTATCATQRLAEFLRHSSPNFGAILSSTPVGPETY-NH2 (disulfide 2-7 (inferred)),22.6
6,B4,45.3
